The target of this assay is Human EB3 (end-binding protein 3) (human, UniProt Q9UPY8 1-281). In words: cross-linking.
Human EB3 (end-binding protein 3), sequence (Q9UPY8 whole entry): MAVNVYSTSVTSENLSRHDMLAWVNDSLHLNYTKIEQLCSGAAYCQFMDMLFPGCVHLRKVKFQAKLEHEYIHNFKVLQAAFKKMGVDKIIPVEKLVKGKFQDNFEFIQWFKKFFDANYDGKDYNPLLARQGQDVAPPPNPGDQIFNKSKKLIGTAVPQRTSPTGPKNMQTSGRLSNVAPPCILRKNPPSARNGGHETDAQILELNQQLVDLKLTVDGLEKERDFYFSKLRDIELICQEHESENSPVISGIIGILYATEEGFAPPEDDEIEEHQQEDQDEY

B1: Human EB1 (end-binding protein 1) (natural protein)
chain: MAVNVYSTSVTSDNLSRHDMLAWINESLQLNLTKIEQLCSGAAYCQFMDMLFPGSIALKKVKFQAKLEHEYIQNFKILQAGFKRMGVDKIIPVDKLVKGKFQDNFEFVQWFKKFFDANYDGKDYDPVAARQGQETAVAPSLVAPALNKPKKPLTSSSAAPQRPISTQRTAAAPKAGPGVVRKNPGVGNGDDEAAELMQQVNVLKLTVEDLEKERDFYFGKLRNIELICQENEGENDPVLQRIVDILYATDEGFVIPDEGGPQEEQEEY
In the case of B1, the binding result is “binds”.

The record behind these values is article PMC3154886 (Molecular Biology of the Cell, 2011).
